From publication PMC11176775, “Impact of DNA ligase 1 and IIIα interactions with APE1 and polβ on the efficiency of base excision repair pathway at the downstream steps”

Key:
[1] = target: T1, DNA ligase 1 (LIG1) (UniProt P18858 1-919); test: BLI; range given jointly for polβ, LIG1 and LIGIIIα; LIG1 buffer; BLI (Octet QKe), 20 °C: polβ, APE1, LIGIIIα in 20 mM Hepes pH 7.4, 200 mM NaCl, 0.5% BSA, 0.05% Tween 20; LIG1 in 50 mM Tris-HCl pH 7.5, 100 mM KCl, 1 mM DTT; no Mg2+ listed; conditions: protein: recombinant; tags: His; label: 3'-biotin on S2; 1-nt gap opposite template C; strands 1 and 2 pair with strand 3; blunt outer ends
[2] = target: apurinic/apyrimidinic endonuclease 1 (APE1) (UniProt P27695 1-318); test: BLI; BLI (Octet QKe), 20 °C: polβ, APE1, LIGIIIα in 20 mM Hepes pH 7.4, 200 mM NaCl, 0.5% BSA, 0.05% Tween 20; LIG1 in 50 mM Tris-HCl pH 7.5, 100 mM KCl, 1 mM DTT; no Mg2+ listed; conditions: protein: recombinant, tags: His, strands 1 and 2 pair with strand 3, blunt outer ends
[3] = target: T2, DNA ligase IIIα (LIGIIIα) (UniProt P49916-3 1-922); test: BLI; range given jointly for polβ, LIG1 and LIGIIIα; individual value only in figure; BLI (Octet QKe), 20 °C: polβ, APE1, LIGIIIα in 20 mM Hepes pH 7.4, 200 mM NaCl, 0.5% BSA, 0.05% Tween 20; LIG1 in 50 mM Tris-HCl pH 7.5, 100 mM KCl, 1 mM DTT; no Mg2+ listed; conditions: protein: recombinant; tags: His; label: 3'-biotin on S2; 1-nt gap opposite template C; strands 1 and 2 pair with strand 3; blunt outer ends
T2 sequence: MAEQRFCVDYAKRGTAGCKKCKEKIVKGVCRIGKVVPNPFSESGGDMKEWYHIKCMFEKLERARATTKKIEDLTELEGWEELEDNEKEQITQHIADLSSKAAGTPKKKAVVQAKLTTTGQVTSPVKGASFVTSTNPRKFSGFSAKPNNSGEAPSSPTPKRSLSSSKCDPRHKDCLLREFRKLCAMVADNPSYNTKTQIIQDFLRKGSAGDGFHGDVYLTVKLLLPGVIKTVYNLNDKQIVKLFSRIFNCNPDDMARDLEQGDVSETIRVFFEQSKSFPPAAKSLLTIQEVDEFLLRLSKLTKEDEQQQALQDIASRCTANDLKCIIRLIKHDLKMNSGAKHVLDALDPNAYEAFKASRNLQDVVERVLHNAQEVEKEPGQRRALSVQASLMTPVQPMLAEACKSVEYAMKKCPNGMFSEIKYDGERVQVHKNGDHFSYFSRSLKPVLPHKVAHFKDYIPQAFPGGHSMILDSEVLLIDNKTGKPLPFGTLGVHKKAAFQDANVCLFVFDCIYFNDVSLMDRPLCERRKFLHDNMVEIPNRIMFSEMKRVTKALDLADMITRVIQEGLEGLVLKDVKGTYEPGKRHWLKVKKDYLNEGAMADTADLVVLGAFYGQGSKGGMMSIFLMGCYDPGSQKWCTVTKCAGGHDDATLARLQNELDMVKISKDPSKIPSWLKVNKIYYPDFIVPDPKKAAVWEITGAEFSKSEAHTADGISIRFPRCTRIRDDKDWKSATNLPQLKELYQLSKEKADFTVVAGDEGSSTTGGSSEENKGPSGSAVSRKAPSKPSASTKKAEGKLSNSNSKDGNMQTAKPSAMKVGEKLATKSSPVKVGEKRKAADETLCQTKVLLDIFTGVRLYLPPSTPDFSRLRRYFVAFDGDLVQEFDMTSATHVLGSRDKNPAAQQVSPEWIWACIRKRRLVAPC

[4] = target: T3, DNA polymerase beta (polβ) (UniProt P06746 1-335); test: BLI; range given jointly for polβ, LIG1 and LIGIIIα; individual value only in figure; BLI (Octet QKe), 20 °C: polβ, APE1, LIGIIIα in 20 mM Hepes pH 7.4, 200 mM NaCl, 0.5% BSA, 0.05% Tween 20; LIG1 in 50 mM Tris-HCl pH 7.5, 100 mM KCl, 1 mM DTT; n
[5] = target: T1, DNA ligase 1 (LIG1); test: BLI; LIG1 buffer; BLI (Octet QKe), 20 °C: polβ, APE1, LIGIIIα in 20 mM Hepes pH 7.4, 200 mM NaCl, 0.5% BSA, 0.05% Tween 20; LIG1 in 50 mM Tris-HCl pH 7.5, 100 mM KCl, 1 mM DTT; no Mg2+ listed; conditions: protein: recombinant; tags: His; label: 3'-biotin on strand 2; nicked duplex; strands 1 and 2 pair with strand 3; blunt outer ends
[6] = target: T2, DNA ligase IIIα (LIGIIIα); test: BLI; BLI (Octet QKe), 20 °C: polβ, APE1, LIGIIIα in 20 mM Hepes pH 7.4, 200 mM NaCl, 0.5% BSA, 0.05% Tween 20; LIG1 in 50 mM Tris-HCl pH 7.5, 100 mM KCl, 1 mM DTT; no Mg2+ listed; conditions: protein: recombinant; tags: His; label: 3'-biotin on strand 2; nicked duplex; strands 1 and 2 pair with strand 3; blunt outer ends
[7] = target: T3, DNA polymerase beta (polβ); test: BLI; BLI (Octet QKe), 20 °C: polβ, APE1, LIGIIIα in 20 mM Hepes pH 7.4, 200 mM NaCl, 0.5% BSA, 0.05% Tween 20; LIG1 in 50 mM Tris-HCl pH 7.5, 100 mM KCl, 1 mM DTT; n

B1: one-nucleotide gap DNA (template C) (dsDNA)
DNA 1: CATGGGCGGCATGAACC
DNA 2: GAGGCCCATCCTCACC
DNA 3: GGTGAGGATGGGCCTCCGGTTCATGCCGCCCATG
modifications: 5'-phosphate on S2 at the gap; 3'-OH on S1
Kd [1]: ~4.9 nM
Kd ([2]; label: 3'-biotin on S2, 1-nt gap opposite template C): 70 nM
Kd [3]: ~4.9 nM
Kd [4]: ~4.9 nM

B2: nick DNA (3'-dG:C) (dsDNA)
DNA 1: CATGGGCGGCATGAACCG
DNA 2: GAGGCCCATCCTCACC
DNA 3: GGTGAGGATGGGCCTCCGGTTCATGCCGCCCATG
modifications: 5'-phosphate on strand 2 at the nick; 3'-OH on strand 1
Kd [5]: 3 nM
Kd ([2]; label: 3'-biotin on strand 2, nicked duplex): 200 nM
Kd [6]: ~7 nM
Kd [7]: ~20 nM
